# Laboratory results as given in patent US20030167486.
# Target: human APP London (V717F), P05067
protein,measurement,value
human BACE (protein) ETDEEPEEPGRRGSFVEMVDNLRGKSGQGYYVEMTVGSPPQTLNILVDTGSSNFAVGAAPHPFLHRYYQRQLSSTYRDLRKGVYEPYTQGKWEGELGTDLVSIPHGPNVTVRANIAAITESDKFFINGSNWEGILGLAYAEIARPDDSLEPFFDSLVKQTHVPNLFSLQLCGAGFPLNQSEVLASVGGSMIIGGIDHSLYTGSLWYTPIRREWYYEVIIVRVEINGQDLKMDCKEYNYDKSIVDSGTTNLRLPKKVFEAAVKSIKAASSTEKFPDGFWLGEQLVCWQAGTTPWNIFPVISLYLMGEVTNQSFRITILPQQYLRPVEDVATSQDDCYKFAISQSSTGTVMGAVIMEGFYVVFDRARKRIGFAVSACHVHDEFRTAAVEGPFVTLDMEDCGYNIPQTDESTLMTIAYVMAAICALFMLPLCLMVCQWRCLRCLRQQHDDFADDISLLK,12 kD beta-secretase fragment of APP on Western blot of brain homogenate,the 12 kD beta-secretase fragment of APP is strongly increased due to expression of transgenic beta-secretase
same,sAPP alpha and sAPP beta fragments in supernatants of organotypic cerebellar slice cultures (ELISA),the over-expression of beta-secretase in APP London single transgenic mice induces a preferential cleavage of APPV717F at the beta cut as demonstrated by the lack of sAPPalpha fragment detection and the increase of sAPPbeta
